From PMC11610247 come the findings set out here.

In experiment [1] the target is SNAP-flag-tagged WT GLP1R (glucagon-like peptide 1 receptor) (human) (UniProt P43220). Kind of experiment: AlphaScreen or HTRF.
For experiment [2], the target named is SNAP-flag-tagged GLP1R p.R380C (human) (UniProt P43220). Nature of the experiment: AlphaScreen or HTRF. (Alpha assays give light when donor and acceptor beads are brought close together.)

In general, pIC50 refers to the IC50 on a negative log10 scale, so that one unit is a factor of ten. A lower pIC50 goes with a high IC50. For orientation: IC50 means the concentration at which inhibition is half-maximal. A low value points to inhibition by little substance.

Consider “exendin-4 (from UniProt P26349 48-87) (peptide; other documents disagree on this pair)”, for which the pIC50 in experiment [1] was 8.13.

For the substance “exendin-4 (from UniProt P26349 48-87) (peptide)”, the IC50 in experiment [2] was determined as 400 nM.
